Our source for the Kd values is PMC5377324.

Holding throughout (experiment): ITC
The target in assay [1] is Atx3_(6Q)-IIC (C-terminal fragment, residues 221-373, of isoform-II Atx3, polyQ truncated to 6Q).
In assay [2] the target is Atx3_(22Q)-IIC (C-terminal fragment, residues 221-373, of isoform-II Atx3, 22Q).
The target in assay [3] is Atx3_(46Q)-IIC (C-terminal fragment, residues 221-373, of isoform-II Atx3, polyQ expanded to 46Q).

The Kd is a measure of binding affinity in units of concentration. The low end stands for higher affinity, the high end for lower affinity. As to “K48-diUb (Lys48-linked di-ubiquitin) (from UniProt P0CG48 1-76) (complex)”, the Kd in assay [1], in assay [2] and in assay [3] was 50 µM in each case.
With “P97N (N-terminal domain of P97, residues 1-213) (from UniProt P55072 1-213) (domain or fragment)”, the Kd in assay [1], in assay [2] and in assay [3] was 10 µM throughout.
